Columns and labels:
Experiment in all cases: BLI
[1] = target: Recombinant histidine-tagged Ewing Sarcoma Breakpoint Region 1 (EWSR1) protein (UniProt Q01844)
EWSR1 = EWSR1 (UniProt Q01844 1-656)
CHIKV nsP2 = CHIKV nsP2 (Chikungunya virus; strain of the nsP2 …, UniProt Q8JUX6 536-1333)
Sequence of CHIKV nsP2 (Q8JUX6 536-1333): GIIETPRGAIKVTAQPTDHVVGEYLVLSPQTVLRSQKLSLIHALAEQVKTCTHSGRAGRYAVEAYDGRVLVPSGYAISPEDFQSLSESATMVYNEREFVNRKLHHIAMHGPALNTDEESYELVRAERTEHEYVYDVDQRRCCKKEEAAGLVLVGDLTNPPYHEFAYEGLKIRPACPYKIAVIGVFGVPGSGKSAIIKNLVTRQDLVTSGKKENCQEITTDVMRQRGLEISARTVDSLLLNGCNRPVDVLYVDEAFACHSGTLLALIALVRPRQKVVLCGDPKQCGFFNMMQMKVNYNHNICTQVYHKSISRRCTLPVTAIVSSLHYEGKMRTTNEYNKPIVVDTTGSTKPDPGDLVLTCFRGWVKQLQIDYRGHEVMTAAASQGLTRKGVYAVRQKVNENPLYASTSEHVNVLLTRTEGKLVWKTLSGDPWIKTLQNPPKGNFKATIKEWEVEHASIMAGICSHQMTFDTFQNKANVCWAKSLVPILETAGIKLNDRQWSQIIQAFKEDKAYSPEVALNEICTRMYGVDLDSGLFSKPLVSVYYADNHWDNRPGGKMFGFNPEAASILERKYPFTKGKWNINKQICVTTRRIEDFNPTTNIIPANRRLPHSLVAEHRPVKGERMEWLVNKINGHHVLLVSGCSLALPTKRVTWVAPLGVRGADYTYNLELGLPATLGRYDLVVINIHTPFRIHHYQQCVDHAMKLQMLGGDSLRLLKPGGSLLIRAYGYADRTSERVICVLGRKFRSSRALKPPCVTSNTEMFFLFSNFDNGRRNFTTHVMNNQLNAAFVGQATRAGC

Sequence of Recombinant histidine-tagged Ewing Sarcoma Breakpoint Region 1 (EWSR1) protein (Q01844 whole entry): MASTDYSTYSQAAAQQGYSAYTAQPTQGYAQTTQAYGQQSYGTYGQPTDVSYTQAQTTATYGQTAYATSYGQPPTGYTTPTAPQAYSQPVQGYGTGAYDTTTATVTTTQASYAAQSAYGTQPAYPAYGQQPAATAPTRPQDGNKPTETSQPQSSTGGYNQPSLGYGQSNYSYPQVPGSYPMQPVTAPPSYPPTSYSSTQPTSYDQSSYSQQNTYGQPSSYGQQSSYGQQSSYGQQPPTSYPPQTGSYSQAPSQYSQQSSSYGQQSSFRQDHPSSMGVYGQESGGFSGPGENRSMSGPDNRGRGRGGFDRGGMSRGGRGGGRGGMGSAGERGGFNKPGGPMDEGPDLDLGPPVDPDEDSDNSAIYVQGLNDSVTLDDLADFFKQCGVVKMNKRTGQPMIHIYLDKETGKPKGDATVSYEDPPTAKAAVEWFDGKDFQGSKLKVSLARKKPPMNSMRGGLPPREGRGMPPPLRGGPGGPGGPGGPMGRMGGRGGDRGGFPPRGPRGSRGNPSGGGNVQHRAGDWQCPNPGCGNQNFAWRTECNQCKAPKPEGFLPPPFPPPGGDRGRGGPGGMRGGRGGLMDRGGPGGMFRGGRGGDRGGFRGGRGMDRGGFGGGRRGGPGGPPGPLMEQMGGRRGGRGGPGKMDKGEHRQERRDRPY
Sequence of EWSR1 (Q01844 whole entry): as above
Sequence of Chikungunya virus non-structural protein 2 (CHIKV nsP2), full-length recombinant (Q8JUX6 536-1333): as the sequence (Q8JUX6 536-1333) above

Molecule	Kd [1] [nM]	Kd (EWSR1) [nM]	Kd (CHIKV nsP2) [nM]
Chikungunya virus non-structural protein 2 (CHIKV nsP2), full-length recombinant (from UniProt Q8JUX6) (enzyme)	716		
CCGAACCCACAGGGACGUAGGAGAUGUUAUUUUGUUUUUAAUAUUUC (ssRNA) [3NCR48]		91.4 ± 0.37	92.9 ± 1.6

Reference: article doi:10.64898/2025.12.16.694598
